Experimental findings from patent publication US20140186823, “MUTANT PORES” (OXFORD NANOPORE TECHNOLOGIES LIMITED, published 2014) are described below.

Conditions in all cases: chain copies: 8 (stated)
In one series the target is MS-(B1-L88S)8 (Mycobacterium smegmatis, UniProt A0QR29 SEQ:1-184, L88S). As to the kind of experiment: mean S.D. of current levels (B1 baseline 3.26).
For a further series, the target named is MS-(B1-L88Q)8 (Mycobacterium smegmatis, UniProt A0QR29 SEQ:1-184, L88Q). The series is described as follows: mean S.D. of current levels (B1 baseline 3.26).
A further series has as its target MS-(B1-L88N)8 (Mycobacterium smegmatis, UniProt A0QR29 SEQ:1-184, L88N). The series is described as follows: mean S.D. of current levels (B1 baseline 3.26).
A further series deals with MS-(B1-N86T)8 (Mycobacterium smegmatis, UniProt A0QR29 SEQ:1-184, N86T). The series is described as follows: current range; Phi29 unzipping, +180 mV.
In a further series the target is MS-(B1-D90Q)8 (Mycobacterium smegmatis, UniProt A0QR29 SEQ:1-184, N90Q). The series is described as follows: current range; Phi29 unzipping, +180 mV.
The target in the next series is MS-(B1-I105L)8 (Mycobacterium smegmatis, UniProt A0QR29 SEQ:1-184, I105L). The series is described as follows: current range; Phi29 unzipping, +180 mV.
In a further series the target is MS-(B1-I89Y-D90S)8 (Mycobacterium smegmatis, UniProt A0QR29 SEQ:1-184, I89Y,N90S). The series is described as follows: current range; Phi29 unzipping, +180 mV.
The next series addresses MS-(B1-I105Y)8 (Mycobacterium smegmatis, UniProt A0QR29 SEQ:1-184, I105Y). As to the kind of experiment: current range; Phi29 unzipping, +180 mV.
Another series has as its target MS-(B1-S103G)8 (Mycobacterium smegmatis, UniProt A0QR29 SEQ:1-184, S103G). The series is described as follows: current range; Phi29 unzipping, +180 mV.

Description for MS-(B1-D90Q)8: (§1) The runs were conducted at room temperature at an applied potential of +180 mV. Current levels observed when the DNA is in the enzyme bound state were indexed and the current level, its duration and variance were recorded.
(§2) This pre-incubation mix was added to 900 μL of buffer in the cis compartment of the electrophysiology chamber to initiate capture of the polymerase-DNA complexes in the MspA nanopore (to give final concentrations of DNA=0.5 nM, Enzyme=0.1 μM). Experiments were carried out at a constant potential of +180 mV. Current levels observed when the DNA is in the enzyme bound state were indexed and the current level, its duration and variance were recorded.
Description for MS-(B1-I105L)8: as §1, §2
Description for MS-(B1-I105Y)8: as §1, §2
Description for MS-(B1-I89Y-D90S)8: as §1, §2
Description for MS-(B1-L88N)8: as §2
Description for MS-(B1-L88Q)8: as §2
Description for MS-(B1-L88S)8: as §2
Description for MS-(B1-N86T)8: as §1, §2
Description for MS-(B1-S103G)8: as §1, §2

B1: FIG. 12 DNA substrate (dsDNA)
DNA 1: TTTTTTTTTTTTTTTTTTTTTCCCCCCCCCCCCCCTATTCTGTTTATGTTTCTTGTTTGTTAGCCCCCTTTGATAAGACAAATACAAAGAACAAACAATCGGCCCTTTAGTGGAGCGAGTGCGAGAGGCGAGCGGTCAA
DNA 2: GTATCTCCATCGCTGTTGACCGCTCGCCTCTCGCACTCGCTCCACTAAAGGGCCGATTGTTTGTTCTTTGTATTTGTCTTATCAAAGGGGGCTAACAAACAAGAAACATAAACAGAATAG
DNA 3: CAGCGATGGAGATAC
modifications: iSp9 and 3' Cholesteryl-TEG on SEQ 23
B1: the activity with MS-(B1-L88S)8 amounted to 3.12; with MS-(B1-L88Q)8 it was 3.3; with MS-(B1-L88N)8, 3.22; in the series with MS-(B1-N86T)8, 58 pA; with MS-(B1-D90Q)8, 70 pA; with MS-(B1-I105L)8, 42 pA. Moreover, the activity in the series with MS-(B1-I89Y-D90S)8 is 67 pA; with MS-(B1-I105Y)8, 45 pA; with MS-(B1-S103G)8, 54 pA.
